1 molecule from paper PMC8123688, “In Vivo Imaging of Thyroid Cancer with ^99mTc-TR1401 and ^99mTc-TR1402: A Comparison Study in Dogs” (Journal of Clinical Medicine, 2021) can be followed below.

One may read the Kd as the constant that tells how readily two partners part at equilibrium. Read a low Kd as tighter binding.

This assay addresses T1, TSH receptor (TSHR) on human ML-1 cells (human (endogenous in ML-1), UniProt P16473 21-764).
T1 construct: thyrotropin receptor (TSHR) expressed on the TSHR-positive human thyroid cancer cell line ML-1; also called TSH receptors; source: endogenous, on human ML-1 cells
Kind of assay: radioligand binding; real-time kinetic binding assay with LigandTracer; 10^6 ML-1 cells seeded in a tilted Petri dish; 2 mL of 30 nM radiolabeled ligand in culture medium for 1 h, then medium without ligand to follow release; Kd from binding/release curve (GraphPad Prism). The following applies: one partner purified.

T1 sequence (P16473 21-764): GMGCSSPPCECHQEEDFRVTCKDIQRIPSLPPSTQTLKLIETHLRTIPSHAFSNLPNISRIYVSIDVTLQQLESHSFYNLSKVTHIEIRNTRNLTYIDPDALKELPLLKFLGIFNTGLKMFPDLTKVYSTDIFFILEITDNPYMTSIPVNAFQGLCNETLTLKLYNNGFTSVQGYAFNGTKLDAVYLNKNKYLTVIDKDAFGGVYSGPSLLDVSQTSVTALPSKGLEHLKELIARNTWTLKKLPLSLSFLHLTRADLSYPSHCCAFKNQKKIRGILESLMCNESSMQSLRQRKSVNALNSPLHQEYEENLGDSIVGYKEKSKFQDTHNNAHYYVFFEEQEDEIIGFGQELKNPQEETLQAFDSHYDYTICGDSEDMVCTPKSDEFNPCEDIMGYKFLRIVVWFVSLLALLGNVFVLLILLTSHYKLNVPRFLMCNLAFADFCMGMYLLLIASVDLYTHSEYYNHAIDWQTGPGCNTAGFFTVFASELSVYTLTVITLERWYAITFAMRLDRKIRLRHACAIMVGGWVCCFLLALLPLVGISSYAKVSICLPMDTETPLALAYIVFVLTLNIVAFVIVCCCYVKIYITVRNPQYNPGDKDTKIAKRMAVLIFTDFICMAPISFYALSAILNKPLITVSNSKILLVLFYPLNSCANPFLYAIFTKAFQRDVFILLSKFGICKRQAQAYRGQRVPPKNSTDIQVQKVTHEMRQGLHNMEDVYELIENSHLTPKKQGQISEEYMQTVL

B1: 99mTc-Thyrogen, radiolabeled recombinant human TSH (Thyrogen) (ligand)
chain 1: not shown
chain 2: FCIPTEYTMHIERRECAYCLTINTTICAGYCMTRDINGKLFLPKYALSQDVCTYRDFIYRTVEIPGCPLHVAPYFSYPVALSCKCGKCNTDYSDCIHEAIKTNYCTKPQKSY
modifications: technetium-99m label (sites and chain not stated) | technetium-99m label (sites and chain not stated)
notes: glycoprotein hormones alpha chain (alpha subunit of TSH), human; recombinant human TSH (Thyrogen), so named in the abstract; thyrotropin (TSH) beta subunit, human; Thyrogen is a drug product; also called rhTSH; radiolabeled human recombinant TSH
Molecule B1 yielded a Kd of 8.4 nM.
